Assay results as given in patent US20200150131A1.

Key:
[1] = biological target: CML conjugated to KLH (CML-KLH); assay: direct binding ELISA, CML-KLH coat 1 ug/mL, antibody at 5.56 ug/mL
[2] = biological target: CML conjugated to KLH (CML-KLH); assay: direct binding ELISA, CML-KLH coat 1 ug/mL, antibody at 1.85 ug/mL
[3] = biological target: CML conjugated to KLH (CML-KLH); assay: direct binding ELISA, CML-KLH coat 1 ug/mL, antibody at 0.62 ug/mL
[4] = biological target: CML conjugated to KLH (CML-KLH); assay: direct binding ELISA, CML-KLH coat 1 ug/mL, antibody at 0.21 ug/mL
[5] = biological target: CML conjugated to KLH (CML-KLH); assay: direct binding ELISA, CML-KLH coat 1 ug/mL, antibody at 0.07 ug/mL
[6] = biological target: CML conjugated to KLH (CML-KLH); assay: direct binding ELISA, CML-KLH coat 1 ug/mL, antibody at 16.67 ug/mL
[7] = biological target: CML conjugated to KLH (CML-KLH); assay: direct binding ELISA, CML-KLH coat 1 ug/mL, antibody at 50 ug/mL

OD450 [1]: 0.165 OD450
OD450 [2]: 0.092 OD450
OD450 [3]: 0.083 OD450
OD450 [4]: 0.075 OD450
OD450 [5]: 0.086 OD450
OD450 [6]: 0.312 OD450
OD450 [7]: 0.462 OD450
Substance: anti-carboxymethyl lysine (CML) antibody (R&D Systems, MAB3247)
